Substitutions are numbered along the chain they refer to.
Legend:
[1] = biological target: T1, human angiopoietin-2 (Ang2) (human, UniProt O15123 19-496); experiment: cell-based or functional assay
T1 sequence: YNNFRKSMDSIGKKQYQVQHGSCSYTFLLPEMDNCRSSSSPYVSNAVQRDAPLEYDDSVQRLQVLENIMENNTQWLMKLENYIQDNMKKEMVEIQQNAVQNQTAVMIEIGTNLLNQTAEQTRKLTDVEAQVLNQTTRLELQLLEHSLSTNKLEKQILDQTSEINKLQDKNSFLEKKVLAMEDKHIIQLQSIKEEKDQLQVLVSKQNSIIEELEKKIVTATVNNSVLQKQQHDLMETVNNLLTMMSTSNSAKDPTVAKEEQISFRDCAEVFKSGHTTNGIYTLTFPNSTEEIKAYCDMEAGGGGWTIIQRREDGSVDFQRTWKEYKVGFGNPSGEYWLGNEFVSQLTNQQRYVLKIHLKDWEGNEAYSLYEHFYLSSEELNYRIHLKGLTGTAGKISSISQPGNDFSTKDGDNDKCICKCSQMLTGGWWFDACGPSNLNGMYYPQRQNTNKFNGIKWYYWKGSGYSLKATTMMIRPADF

[2] = biological target: T1, human angiopoietin-2 (Ang2); experiment: Biacore SPR, 37 C, n = 3
[3] = biological target: T2, cyno Ang2 (cynomolgus, UniProt A0A2K5VNX6 19-496); experiment: Biacore SPR, 37 C, n = 3
T2 construct: also called cynomolgus Ang2
T2 sequence: T1 sequence with E258G, I279V, F284L, I291V, G410A, A468G, D477G

[4] = biological target: T3, mouse Ang2 (mouse, UniProt O35608 19-496, limits assumed); experiment: Biacore SPR, 37 C, n = 3
T3 sequence (looked up): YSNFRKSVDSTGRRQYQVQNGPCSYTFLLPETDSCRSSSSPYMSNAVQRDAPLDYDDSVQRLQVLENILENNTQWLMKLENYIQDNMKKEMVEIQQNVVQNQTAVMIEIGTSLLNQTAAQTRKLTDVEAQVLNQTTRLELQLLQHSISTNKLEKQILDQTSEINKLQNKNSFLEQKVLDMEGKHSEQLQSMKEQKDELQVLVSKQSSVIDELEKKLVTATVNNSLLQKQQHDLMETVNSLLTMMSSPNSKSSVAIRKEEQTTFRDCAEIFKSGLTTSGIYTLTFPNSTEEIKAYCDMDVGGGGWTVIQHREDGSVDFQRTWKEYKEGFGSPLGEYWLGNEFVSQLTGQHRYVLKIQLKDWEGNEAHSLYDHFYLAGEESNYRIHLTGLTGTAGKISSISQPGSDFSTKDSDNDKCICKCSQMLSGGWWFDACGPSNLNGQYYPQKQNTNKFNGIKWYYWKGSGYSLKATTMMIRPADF

[5] = biological target: T4, rabbit Ang2 (rabbit, UniProt G1T9B3 19-496); experiment: Biacore SPR, 37 C, n = 3
T4 sequence: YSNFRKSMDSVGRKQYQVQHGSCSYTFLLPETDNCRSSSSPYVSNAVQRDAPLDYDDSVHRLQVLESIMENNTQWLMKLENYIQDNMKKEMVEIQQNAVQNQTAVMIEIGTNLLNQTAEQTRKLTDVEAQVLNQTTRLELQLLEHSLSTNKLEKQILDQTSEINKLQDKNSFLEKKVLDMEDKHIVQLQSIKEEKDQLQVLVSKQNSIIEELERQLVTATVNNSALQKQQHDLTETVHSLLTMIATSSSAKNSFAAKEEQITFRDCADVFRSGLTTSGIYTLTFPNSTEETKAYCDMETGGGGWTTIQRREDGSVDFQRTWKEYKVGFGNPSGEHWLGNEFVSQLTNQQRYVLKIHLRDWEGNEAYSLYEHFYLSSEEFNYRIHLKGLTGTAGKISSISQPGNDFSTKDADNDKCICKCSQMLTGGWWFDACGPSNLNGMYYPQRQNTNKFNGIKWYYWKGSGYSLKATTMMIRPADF

[6] = biological target: T5, dog Ang2 (dog, UniProt A0A8J8 19-495, limits assumed); experiment: Biacore SPR, 37 C, n = 3
T5 sequence (looked up): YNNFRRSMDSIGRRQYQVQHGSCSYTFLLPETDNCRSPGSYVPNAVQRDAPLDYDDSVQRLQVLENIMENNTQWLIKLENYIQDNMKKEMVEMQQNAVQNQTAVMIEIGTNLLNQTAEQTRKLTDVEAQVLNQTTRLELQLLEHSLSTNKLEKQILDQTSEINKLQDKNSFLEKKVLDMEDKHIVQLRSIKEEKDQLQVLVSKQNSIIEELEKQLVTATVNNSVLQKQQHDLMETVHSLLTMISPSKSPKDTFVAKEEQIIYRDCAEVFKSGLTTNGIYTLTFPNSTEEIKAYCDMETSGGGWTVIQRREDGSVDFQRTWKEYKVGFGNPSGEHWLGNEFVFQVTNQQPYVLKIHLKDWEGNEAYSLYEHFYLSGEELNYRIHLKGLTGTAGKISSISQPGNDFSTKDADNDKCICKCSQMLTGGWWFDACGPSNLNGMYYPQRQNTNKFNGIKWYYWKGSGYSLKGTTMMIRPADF

[7] = biological target: T6, rat Ang2 (rat, UniProt O35462 19-496, limits assumed); experiment: Biacore SPR, 37 C, n = 3
T6 sequence (looked up): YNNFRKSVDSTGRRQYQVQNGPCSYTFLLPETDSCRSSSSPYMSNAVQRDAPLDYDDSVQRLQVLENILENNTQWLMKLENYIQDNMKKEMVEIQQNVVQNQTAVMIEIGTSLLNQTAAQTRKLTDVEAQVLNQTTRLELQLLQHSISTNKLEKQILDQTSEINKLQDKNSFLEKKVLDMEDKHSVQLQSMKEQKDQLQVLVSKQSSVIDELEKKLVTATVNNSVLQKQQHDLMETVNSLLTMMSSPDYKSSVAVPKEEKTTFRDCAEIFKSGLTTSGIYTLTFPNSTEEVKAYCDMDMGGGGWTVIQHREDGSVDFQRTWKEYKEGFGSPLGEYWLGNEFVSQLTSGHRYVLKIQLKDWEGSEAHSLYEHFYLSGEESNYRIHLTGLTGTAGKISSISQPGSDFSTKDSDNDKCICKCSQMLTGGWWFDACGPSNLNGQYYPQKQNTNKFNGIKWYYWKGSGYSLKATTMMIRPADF

[8] = biological target: T1, human angiopoietin-2 (Ang2); experiment: KinExA; reference H1H685P-293HEK
[9] = biological target: T1, human angiopoietin-2 (Ang2); experiment: Biacore SPR, 25 C; reference 3.19.3-293HEK
[10] = biological target: T1, human angiopoietin-2 (Ang2); experiment: Biacore SPR, 25 C; reference H1H685P-293HEK
[11] = biological target: T1, human angiopoietin-2 (Ang2); experiment: Biacore SPR, 25 C, antibody captured on Protein A, soluble Ang2 injected
[12] = biological target: T1, human angiopoietin-2 (Ang2); experiment: KinExA 3200, solution equilibrium at 25 C, human Ang2 on sepharose beads
[13] = biological target: T1, human angiopoietin-2 (Ang2); experiment: blocking ELISA: antibody titrated against biotinylated human Ang2 (100 ng/ml), binding to coated human Tie2-Fc read

B1: Antibody A (antibody, human IgG4 S228P, kappa, F234A L235A, V domains shown)
VH: QVQLVQSGAEVKKPGASVKVSCKASGYSFTDYNMVWVRQAPGQGLEWMGYIDPYNGGTGYNQKFEGRVTMTTDTSTSTAYMELRSLRSDDTAVYYCARTRDRYDVWYFDVWGQGTLVTVSS
VL: DIQMTQSPSSVSASVGDRVTITCKASQDVYIAVAWYQQKPGKAPKLLIYWASTRDTGVPSRFSGSGSGTDFTLTISSLQPEDFATYYCHQYSSYPPTFGGGTKVEIKR
Q: How did the “IC50, neutralization of human Ang2 induced phospho-Tie-2 in CHO-Tie-2 cells” value [1] turn out when B1 was run?
A: 0.773 nM

Q: And the Kd [2]?
A: 0.08 nM

Q: What about the koff [2] of the same binder?
A: 7e-05 s⁻¹

Q: And the kon [2]?
A: 1e+06 M⁻¹ s⁻¹

Q: And the Kd [3]?
A: 0.107 nM

Q: What about the koff [3] of the same binder?
A: 0.00029 s⁻¹

Q: What about the kon [3] of the same binder?
A: 2.7e+06 M⁻¹ s⁻¹

Q: What about the Kd [4] of the same binder?
A: 0.109 nM

Q: What about the koff [4] of the same binder?
A: 0.00011 s⁻¹

Q: What about the kon [4] of the same binder?
A: 1e+06 M⁻¹ s⁻¹

Q: What about the Kd [5] of the same binder?
A: 0.21 nM

Q: What about the koff [5] of the same binder?
A: 0.00015 s⁻¹

Q: And the kon [5]?
A: 730000 M⁻¹ s⁻¹

Q: What about the Kd [6] of the same binder?
A: 0.14 nM

Q: And the koff [6]?
A: 0.00011 s⁻¹

Q: And the kon [6]?
A: 790000 M⁻¹ s⁻¹

Q: What about the Kd [7] of the same binder?
A: 0.18 nM

Q: What about the koff [7] of the same binder?
A: 0.0002 s⁻¹

Q: What about the kon [7] of the same binder?
A: 1.2e+06 M⁻¹ s⁻¹

Q: What about the “fold lower KD than H1H685P-293HEK” value [8] of the same binder?
A: ~8 fold

Q: And the “fold lower KD than 3.19.3-293HEK” value [9]?
A: ~8 fold

Q: And the “fold lower KD than H1H685P-293HEK” value [10]?
A: ~4 fold

Q: What about the Kd [11] of the same binder?
A: 0.038 nM

Q: And the koff [11]?
A: 2.8e-05 s⁻¹

Q: What about the kon [11] of the same binder?
A: 747000 M⁻¹ s⁻¹

Q: What about the Kd [12] of the same binder?
A: 0.00011 nM

Q: And the IC50 [13]?
A: 0.027 nM

— US20150329627A1 (Eli Lilly, published 2015)
